Laboratory results reported in patent US20100209945A1.

Target: the different types of antibodies (different animal originated antibodies of Example 2)
Assay: SPR (Biacore 3000), hybrid on CM-5 chip, antibody in solution

B1: peptide hybrid for protein immobilization represented by formula 3 (H2N-GHWRGWVS-NH(CH2CH2O)nCH2CH2CO-Cys-NH2) (peptide)
peptide: RTYRTYRTYRTYKKKG
modifications: C-terminal NH(CH2CH2O)nCH2CH2CO-Cys-NH2 (PEG linker and cysteine amide)
SPR reaction value: < 200 RU
